Data on three substances can be found in paper PMC11246403.

For one assay, the target named is KNP-301 (UniProt Q9Y279). The assay can be described thus: SPR.
Another assay has as its target C3 (UniProt P01024). The assay can be described thus: ELISA.
For another assay, the target named is Human VEGF165 (human). The experiment in a line: ELISA. (An ELISA detects its analyte on a solid surface through an enzyme-linked reagent.)
The target of assay [1] is cynomolgus C3b (cynomolgus monkey). The experiment in a line: ELISA.
Assay [2] has as its target cynomolgus VEGF (cynomolgus monkey). The assay can be described thus: ELISA.
The next assay has as its target human C3b (human) (UniProt P01024). The assay can be described thus: ELISA.
The target of a further assay is rabbit C3b (rabbit) (UniProt P12247). The assay can be described thus: ELISA.
A further assay has as its target rabbit VEGF (rabbit). The experiment in a line: ELISA.
The target in another assay is rat C3b (rat) (UniProt P01026). The assay can be described thus: ELISA.
The target of another assay is rat VEGF (rat) (UniProt P16612). The assay can be described thus: ELISA.

Sequence of UniProt P01026 (P01026 25-1663): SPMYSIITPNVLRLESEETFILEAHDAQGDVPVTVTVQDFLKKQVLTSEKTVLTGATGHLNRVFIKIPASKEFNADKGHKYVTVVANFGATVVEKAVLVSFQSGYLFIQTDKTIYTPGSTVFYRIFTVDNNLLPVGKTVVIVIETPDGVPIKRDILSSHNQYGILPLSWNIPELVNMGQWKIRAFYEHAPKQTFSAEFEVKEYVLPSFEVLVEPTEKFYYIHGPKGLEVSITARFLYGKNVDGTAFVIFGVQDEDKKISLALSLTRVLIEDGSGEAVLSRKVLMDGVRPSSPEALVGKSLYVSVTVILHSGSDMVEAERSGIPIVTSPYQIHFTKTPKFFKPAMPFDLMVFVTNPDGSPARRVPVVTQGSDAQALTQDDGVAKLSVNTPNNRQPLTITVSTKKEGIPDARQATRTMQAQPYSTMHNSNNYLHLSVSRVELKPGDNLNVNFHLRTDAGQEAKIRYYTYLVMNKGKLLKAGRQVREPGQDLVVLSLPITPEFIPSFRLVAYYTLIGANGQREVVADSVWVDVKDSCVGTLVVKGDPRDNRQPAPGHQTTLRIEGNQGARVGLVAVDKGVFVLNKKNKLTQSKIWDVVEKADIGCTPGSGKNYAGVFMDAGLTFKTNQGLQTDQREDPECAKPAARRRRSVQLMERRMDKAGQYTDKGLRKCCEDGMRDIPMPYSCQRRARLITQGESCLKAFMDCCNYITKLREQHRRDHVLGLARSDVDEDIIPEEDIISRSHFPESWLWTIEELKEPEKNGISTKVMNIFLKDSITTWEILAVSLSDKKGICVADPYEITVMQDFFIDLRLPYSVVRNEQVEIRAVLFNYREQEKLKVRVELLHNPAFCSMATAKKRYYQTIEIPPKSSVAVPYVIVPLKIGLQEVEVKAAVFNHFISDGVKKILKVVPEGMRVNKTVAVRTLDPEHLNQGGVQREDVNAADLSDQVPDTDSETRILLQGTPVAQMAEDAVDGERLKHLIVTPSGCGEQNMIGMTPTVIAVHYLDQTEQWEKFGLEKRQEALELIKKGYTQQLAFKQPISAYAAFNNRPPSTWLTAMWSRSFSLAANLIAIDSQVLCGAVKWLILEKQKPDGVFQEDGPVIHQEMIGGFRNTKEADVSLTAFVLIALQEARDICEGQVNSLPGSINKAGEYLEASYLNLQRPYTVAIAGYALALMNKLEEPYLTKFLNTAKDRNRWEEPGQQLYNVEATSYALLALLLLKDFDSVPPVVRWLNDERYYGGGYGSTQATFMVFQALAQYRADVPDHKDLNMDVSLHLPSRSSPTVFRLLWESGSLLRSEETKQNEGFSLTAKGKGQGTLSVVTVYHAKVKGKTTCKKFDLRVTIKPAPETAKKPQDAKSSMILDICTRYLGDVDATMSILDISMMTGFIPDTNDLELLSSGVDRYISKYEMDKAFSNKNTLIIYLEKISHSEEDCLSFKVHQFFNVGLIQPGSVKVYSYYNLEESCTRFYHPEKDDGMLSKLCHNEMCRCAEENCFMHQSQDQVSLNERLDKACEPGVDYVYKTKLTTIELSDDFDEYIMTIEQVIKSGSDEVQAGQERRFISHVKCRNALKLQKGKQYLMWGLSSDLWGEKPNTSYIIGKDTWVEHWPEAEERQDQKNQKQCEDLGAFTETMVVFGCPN
Sequence of UniProt P12247 (P12247 whole entry, chain 1 of 2): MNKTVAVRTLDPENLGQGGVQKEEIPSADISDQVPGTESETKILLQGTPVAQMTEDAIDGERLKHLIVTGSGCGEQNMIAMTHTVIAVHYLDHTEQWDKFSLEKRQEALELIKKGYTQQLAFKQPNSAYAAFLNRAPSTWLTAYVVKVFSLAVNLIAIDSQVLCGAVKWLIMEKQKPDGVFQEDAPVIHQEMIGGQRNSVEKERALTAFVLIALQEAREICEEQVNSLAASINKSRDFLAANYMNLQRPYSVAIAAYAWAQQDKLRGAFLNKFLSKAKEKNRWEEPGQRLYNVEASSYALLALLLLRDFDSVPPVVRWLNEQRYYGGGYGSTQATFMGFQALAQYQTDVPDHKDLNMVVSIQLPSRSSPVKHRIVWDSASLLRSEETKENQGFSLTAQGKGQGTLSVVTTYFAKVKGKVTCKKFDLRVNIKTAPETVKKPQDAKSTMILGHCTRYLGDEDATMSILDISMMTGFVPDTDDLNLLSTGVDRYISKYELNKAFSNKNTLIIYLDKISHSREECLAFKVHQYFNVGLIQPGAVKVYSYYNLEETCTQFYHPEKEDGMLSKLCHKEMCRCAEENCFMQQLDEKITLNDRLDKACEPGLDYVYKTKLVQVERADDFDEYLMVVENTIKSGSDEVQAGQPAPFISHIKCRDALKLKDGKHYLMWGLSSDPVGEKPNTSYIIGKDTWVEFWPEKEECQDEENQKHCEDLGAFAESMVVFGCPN
Sequence of UniProt P12247 (P12247 whole entry, chain 2 of 2): as the sequence (P12247 whole entry, chain 1 of 2) above

Usually Kd stands for a measure of binding affinity in units of concentration. Read a low Kd as a tighter complex. Human VEGF165 (ligand) came in with a Kd in the assay with KNP-301 of 0.0628 nM. This counts as picomolar.

For “KNP-301 (from UniProt Q9Y279 20-283) (Fc fusion)”, the fold lower binding affinity than to C3b (ratio of IC50 values) with C3 amounted to 10 fold. Besides, the relative binding affinity (%) with Human VEGF165 (human) turned out to be 100%; in assay [1], 78.3%; in assay [2] it was 75.8%; with human C3b (human), 100%; in the assay with rabbit C3b (rabbit), 1.2%; in the assay with rabbit VEGF (rabbit) it was 165%. Further, the relative binding affinity (%) with rat C3b (rat) was 6.3%; in the assay with rat VEGF (rat) it was 80.8%.

With “human C3b (from UniProt P01024 23-667; P01024 749-1663) (natural protein)”, in the assay with KNP-301, the Kd is 4.34 nM.
